Results as given in IntAct's records for PubMed 22773792.

B1: Stage VI sporulation protein D (Bacillus subtilis), P37963 (parent)
chain: MPQNHRLQFSVEESICFQKGQEVSELLSISLDPDIRVQEVNDYVSIIGSLELTGEYNIDQNKHTEEIYTDKRFVEQVRKREDGSAELTHCFPVDITIPKNKVSHLQDVFVFIDAFDYQLTDSRILTIQADLAIEGLLDDTQDKEPEIPLYEAPAAFREEELSEPPAHSVVEEPGASSAEEAVLQHEPPAEPPELFISKAGLREELETEKAESEPPESVASEPEAREDVKEEEESEELAVPETEVRAESETEESEPEPDPSEIEIQEIVKAKKETAEPAAAIADVREEADSPAETELREHVGAEESPALEAELHSETVIAKEKEETTVSPNHEYALRQEAQNEEAAQSDQADPALCQEEAEPDEALESVSEAALSIEDSRETASAVYMENDNADLHFHFNQKTSSEEASQEELPEPAYRTFLPEQEEEDSFYSAPKLLEEEEQEEESFEIEVRKTPSAEEPKEETPFQSFQLPESSETERKETDAVPRVAPAAETKEPQTKESDNSLYLTKLFTKEADEFSRMKICIVQQEDTIERLCERYEITSQQLIRMNSLALDDELKAGQILYIPQYKNSHA
partner: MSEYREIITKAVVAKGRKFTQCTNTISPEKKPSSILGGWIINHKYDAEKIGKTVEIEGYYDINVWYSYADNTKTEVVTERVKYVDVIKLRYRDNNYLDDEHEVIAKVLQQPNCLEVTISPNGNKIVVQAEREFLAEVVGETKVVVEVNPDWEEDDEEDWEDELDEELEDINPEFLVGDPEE

Variants of: B1
Settings: with cote_bacsu cotE

**Q.** How did the “effect of a mutation on the interaction” value turn out when I127A was run?
**A.** decreasing interaction strength

**Q.** For L131A, which “effect of a mutation on the interaction” value is on record?
**A.** decreasing interaction strength

Variants of: B1
Settings: with cote_bacsu cotE
Remark: another data set of the same source

**Q.** L131A was tested. Which “effect of a mutation on the interaction” value did it give?
**A.** disrupting interaction
